Measurements as given in doi:10.1101/2021.03.17.435802 (bioRxiv, 2021).

Biological target: SARS-CoV-2 S1 WT (in-house) (SARS-CoV-2, UniProt P0DTC2)
Assay: SPR

B1: REGN10987 (antibody, V domains shown)
VH: QVQLVESGGGVVQPGRSLRLSCAASGFTFSNYAMYWVRQAPGKGLEWVAVISYDGSNKYYADSVKGRFTISRDNSKNTLYLQMNSLRTEDTAVYYCASGSDYGDYLLVYWGQGTLVTVSS
VL: QSALTQPASVSGSPGQSITISCTGTSSDVGGYNYVSWYQQHPGKAPKLMIYDVSKRPSGVSNRFSGSKSGNTASLTISGLQSEDEADYYCNSLTSISTWVFGGGTKLTVL
binding result: binds
